Reference: the supplement of paper PMC9732359
± gives the uncertainty stated by the source.

Assay: protein stability index of a GFP-peptide fusion (yeast GPS) (PSI 1-4); higher = more stable; sorted into four equal gates, so the index is relative within each strain
Summary of the method: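 The protein stability index combines read frequencies across sorting gates, each weighted by its gate number and then summed. To obtain those frequencies, a pooled yeast library of GFP fusions to tiled 17-residue yeast protein peptides, on a plasmid also expressing Cherry, was grown to mid-log phase in leucine-free medium. The cells were sorted into four equal gates by GFP/Cherry ratio before plasmid amplification by PCR and Illumina sequencing.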

In the case of ELWRKEQKLQTVLETLL [SMC3], the protein stability index (doa10∆) is reported as 2.9 ± 0.13, the protein stability index (pdr5∆) is reported as 3.42 ± 0.11 and the protein stability index (san1∆) is reported as 2.7 ± 0.17. The protein stability index (ubr1∆) was 3.31 ± 0.064.

EMIDSHIKEASEEVDDL [SNF2] gave a protein stability index (pdr5∆) of 2.81 ± 0.19, a protein stability index (san1∆) of 2.81 ± 0.094 and a protein stability index (ubr1∆) of 3.09 ± 0.07.

For EMVKDRGYFITQEEVEL [RPB5], the protein stability index (doa10∆) was 2.62 ± 0.071, the protein stability index (pdr5∆) was 2.08 ± 0.071 and the protein stability index (san1∆) was 1.74 ± 0.066. The protein stability index (ubr1∆) was 2.1 ± 0.042.

ENALIELKNELAKTKEN [YIL149C/MLP2] showed a protein stability index (doa10∆) of 2.82 ± 0.087, a protein stability index (pdr5∆) of 2.97 ± 0.07 and a protein stability index (san1∆) of 2.98 ± 0.068. The protein stability index (ubr1∆) was 2.93 ± 0.08.

ENESTNYQYKIQELRKL [MED7] showed a protein stability index (doa10∆) of 2.25 ± 0.054, a protein stability index (pdr5∆) of 2.61 ± 0.074 and a protein stability index (san1∆) of 2.36 ± 0.074. It also gave a protein stability index (ubr1∆) of 2.69 ± 0.06.

For ENGTLLVPPPRTIANQD [RPR2], the protein stability index (doa10∆) was 3.01 ± 0.054, the protein stability index (pdr5∆) was 3.05 ± 0.052 and the protein stability index (san1∆) was 2.81 ± 0.05. For the same sequence, the protein stability index (ubr1∆) was 2.99 ± 0.036.

With ENIEPLDPINLPLDSQD [PRP8] the protein stability index (doa10∆) was 2.87 ± 0.078, the protein stability index (pdr5∆) was 2.97 ± 0.089 and the protein stability index (san1∆) was 2.49 ± 0.11. It also gave a protein stability index (ubr1∆) of 3.04 ± 0.067.

In the case of ENLNRNWRGREHWKVRN [BRN1], the protein stability index (doa10∆) is reported as 3.57 ± 0.11, the protein stability index (pdr5∆) is reported as 3.33 ± 0.14 and the protein stability index (san1∆) is reported as 3.37 ± 0.063. The protein stability index (ubr1∆) was 3.5 ± 0.08.

ENPAFLPGTNNNSNSNN [SEC65] gave a protein stability index (doa10∆) of 3.12 ± 0.17, a protein stability index (pdr5∆) of 3.13 ± 0.24 and a protein stability index (san1∆) of 2.69 ± 0.15. It also gave a protein stability index (ubr1∆) of 2.86 ± 0.067.

Work on ENPNFWRQFGNRMQISP [GRR1] yielded a protein stability index (doa10∆) of 3.14 ± 0.13, a protein stability index (pdr5∆) of 3.02 ± 0.13 and a protein stability index (san1∆) of 2.93 ± 0.11. The protein stability index (ubr1∆) was 2.76 ± 0.12.

With ENQPFHGIKDIPIGHVH [AAR2] the protein stability index (doa10∆) was 2.79 ± 0.078, the protein stability index (pdr5∆) was 2.98 ± 0.086 and the protein stability index (san1∆) was 2.89 ± 0.084. It also gave a protein stability index (ubr1∆) of 2.67 ± 0.092.

For ENSYLRGLTPQEFFFHA [RPO21], the protein stability index (doa10∆) was 2.49 ± 0.046, the protein stability index (pdr5∆) was 2.64 ± 0.046 and the protein stability index (san1∆) was 2.45 ± 0.062. For the same sequence, the protein stability index (ubr1∆) was 2.64 ± 0.047.

In the case of ENVGTRLLPINVNKKAL [MED11], the protein stability index (doa10∆) is reported as 2.87 ± 0.18, the protein stability index (pdr5∆) is reported as 2.65 ± 0.13 and the protein stability index (san1∆) is reported as 2.89 ± 0.094. The protein stability index (ubr1∆) was 2.98 ± 0.22.

For ENVILGQMAPIGTGAFD [RPO21], the protein stability index (doa10∆) was 2.33 ± 0.11, the protein stability index (pdr5∆) was 2.37 ± 0.13 and the protein stability index (san1∆) was 2.36 ± 0.12. It also gave a protein stability index (ubr1∆) of 2.54 ± 0.056.

For ENYEGKQDKTLQKVENQ [YIL149C/MLP2], the protein stability index (doa10∆) was 3.2 ± 0.18, the protein stability index (pdr5∆) was 3.29 ± 0.14 and the protein stability index (san1∆) was 2.8 ± 0.17. For the same sequence, the protein stability index (ubr1∆) was 3.21 ± 0.21.

EPQGAVTHMDQIFVRGS [SMD3] gave a protein stability index (doa10∆) of 2.64 ± 0.11, a protein stability index (pdr5∆) of 2.77 ± 0.07 and a protein stability index (san1∆) of 2.62 ± 0.099. For the same sequence, the protein stability index (ubr1∆) was 2.56 ± 0.11.

EPSGIYSSWSAQTIGRN [PRE6] gave a protein stability index (doa10∆) of 1.24 ± 0.064, a protein stability index (pdr5∆) of 1.21 ± 0.089 and a protein stability index (san1∆) of 1.06 ± 0.18. For the same sequence, the protein stability index (ubr1∆) was 1.53 ± 0.097.

For EQEIENNGLPMKNKAET [ITC1], the protein stability index (doa10∆) was 2.81 ± 0.065, the protein stability index (pdr5∆) was 3.06 ± 0.066 and the protein stability index (san1∆) was 3 ± 0.045. It also gave a protein stability index (ubr1∆) of 2.9 ± 0.067.

EQEQQQQQIIKIRITLT [RPS20] gave a protein stability index (doa10∆) of 2.77 ± 0.057, a protein stability index (pdr5∆) of 2.86 ± 0.06 and a protein stability index (san1∆) of 3.03 ± 0.043. The protein stability index (ubr1∆) was 3.09 ± 0.061.

Sequence EQISNNSNQQQNPKLFQ [SIN4] has a protein stability index (doa10∆) of 2.96 ± 0.062, a protein stability index (pdr5∆) of 2.67 ± 0.045 and a protein stability index (san1∆) of 3.13 ± 0.062. The protein stability index (ubr1∆) was 2.95 ± 0.052.

For EQKLQTVLETLLSDVNQ [SMC3], the protein stability index (ubr1∆) was 1.22 ± 0.13.

For EQKNTAKEELNGLKDQL [YIL149C/MLP2], the protein stability index (doa10∆) was 3.19 ± 0.1, the protein stability index (pdr5∆) was 3.32 ± 0.16 and the protein stability index (san1∆) was 3.12 ± 0.054. It also gave a protein stability index (ubr1∆) of 3.31 ± 0.07.

EQLKEQMEDMEESINEF [SMC4] gave a protein stability index (doa10∆) of 3.17 ± 0.21, a protein stability index (pdr5∆) of 3.2 ± 0.1 and a protein stability index (san1∆) of 3.17 ± 0.048.

For EQNSSSAKPSQIPTVSS [SIR4], the protein stability index (doa10∆) was 2.99 ± 0.062, the protein stability index (pdr5∆) was 2.97 ± 0.051 and the protein stability index (san1∆) was 2.97 ± 0.048. The protein stability index (ubr1∆) was 3.04 ± 0.05.

In the case of EQQWITRAQYLAFAKLV [SRP68], the protein stability index (doa10∆) is reported as 1.63 ± 0.06, the protein stability index (pdr5∆) is reported as 1.51 ± 0.051 and the protein stability index (san1∆) is reported as 1.33 ± 0.086. It also gave a protein stability index (ubr1∆) of 1.5 ± 0.051.

Work on EQSELLKAQITSLKCLV [SNF2] yielded a protein stability index (doa10∆) of 1.92 ± 0.049, a protein stability index (pdr5∆) of 1.83 ± 0.048 and a protein stability index (san1∆) of 2.16 ± 0.074. For the same sequence, the protein stability index (ubr1∆) was 1.99 ± 0.042.

With EQSLEVFIFPTSNWEIY [SRB8] the protein stability index (doa10∆) was 2.47 ± 0.067, the protein stability index (pdr5∆) was 2.2 ± 0.048 and the protein stability index (san1∆) was 2.57 ± 0.044. The protein stability index (ubr1∆) was 2.52 ± 0.033.

For EREPVPLGILHIPICVT [RRP45], the protein stability index (doa10∆) was 1.81 ± 0.077, the protein stability index (pdr5∆) was 1.88 ± 0.06 and the protein stability index (san1∆) was 1.47 ± 0.19. It also gave a protein stability index (ubr1∆) of 1.95 ± 0.059.

ERESSGAKDAEKSGISK [RPC17] gave a protein stability index (doa10∆) of 2.91 ± 0.18, a protein stability index (pdr5∆) of 3.4 ± 0.3 and a protein stability index (ubr1∆) of 3.64 ± 0.16.

In the case of EREVFVDVKPKSPKERE [RPC25], the protein stability index (pdr5∆) is reported as 2.98 ± 0.17 and the protein stability index (ubr1∆) is reported as 3.34 ± 0.13.

ERFQVMVLRKQKRYTVK [RPL14A] gave a protein stability index (doa10∆) of 2.37 ± 0.12, a protein stability index (pdr5∆) of 2.19 ± 0.1 and a protein stability index (san1∆) of 2.21 ± 0.24. It also gave a protein stability index (ubr1∆) of 2.71 ± 0.11.

In the case of ERGHPKDNARIYQVPEK [POP1], the protein stability index (doa10∆) is reported as 3.02 ± 0.082, the protein stability index (pdr5∆) is reported as 3.02 ± 0.1 and the protein stability index (san1∆) is reported as 3 ± 0.093. For the same sequence, the protein stability index (ubr1∆) was 3.11 ± 0.05.

Sequence ERHQAGKNQWFFSKLRF [RPL27A] has a protein stability index (doa10∆) of 3.19 ± 0.091, a protein stability index (pdr5∆) of 3.24 ± 0.092 and a protein stability index (san1∆) of 3.09 ± 0.075. It also gave a protein stability index (ubr1∆) of 3.18 ± 0.046.

With ERKEQEEKEKEQSKEVG [BRN1] the protein stability index (doa10∆) was 3.48 ± 0.21, the protein stability index (san1∆) was 3.49 ± 0.11 and the protein stability index (ubr1∆) was 3.45 ± 0.14.

Work on ERKQIHEFKLIVGKKIQ [GRR1] yielded a protein stability index (doa10∆) of 2.82 ± 0.045, a protein stability index (pdr5∆) of 2.58 ± 0.065 and a protein stability index (san1∆) of 3.03 ± 0.06. For the same sequence, the protein stability index (ubr1∆) was 3.13 ± 0.058.

In the case of ERKTLERQQENLLIQRL [SWI3], the protein stability index (doa10∆) is reported as 3.07 ± 0.09, the protein stability index (pdr5∆) is reported as 3.28 ± 0.087 and the protein stability index (san1∆) is reported as 3.12 ± 0.078. For the same sequence, the protein stability index (ubr1∆) was 3.09 ± 0.067.

Sequence ERNASEVRDATLNNIFR [GRR1] has a protein stability index (doa10∆) of 3.36 ± 0.17, a protein stability index (san1∆) of 3.41 ± 0.19 and a protein stability index (ubr1∆) of 3.53 ± 0.16.

Work on ERPAIEFETPTFLVSND [RPN14] yielded a protein stability index (doa10∆) of 3 ± 0.063, a protein stability index (pdr5∆) of 3.14 ± 0.056 and a protein stability index (san1∆) of 2.81 ± 0.06. The protein stability index (ubr1∆) was 2.9 ± 0.089.

Sequence ERTKQRTAKAYLKVSEE [PRP8] has a protein stability index (doa10∆) of 3.08 ± 0.093, a protein stability index (pdr5∆) of 3.12 ± 0.11 and a protein stability index (san1∆) of 3.27 ± 0.056. It also gave a protein stability index (ubr1∆) of 3.34 ± 0.057.

ERVMKNKVEENLEGLYL [RPT2] gave a protein stability index (doa10∆) of 3.12 ± 0.11, a protein stability index (pdr5∆) of 3.28 ± 0.067 and a protein stability index (san1∆) of 3.07 ± 0.14. For the same sequence, the protein stability index (ubr1∆) was 3.35 ± 0.12.

ESAVKYALAAKDRFDID [RPN2] showed a protein stability index (doa10∆) of 3.54 ± 0.27, a protein stability index (pdr5∆) of 3.09 ± 0.29 and a protein stability index (san1∆) of 2.87 ± 0.22. It also gave a protein stability index (ubr1∆) of 3.45 ± 0.1.

In the case of ESDSKATLQSNEPTQKD [DSN1], the protein stability index (doa10∆) is reported as 2.81 ± 0.12, the protein stability index (pdr5∆) is reported as 2.94 ± 0.14 and the protein stability index (san1∆) is reported as 2.99 ± 0.071. For the same sequence, the protein stability index (ubr1∆) was 3.02 ± 0.086.

Work on ESKLIPQENDLESKMSE [SMC3] yielded a protein stability index (doa10∆) of 2.81 ± 0.065, a protein stability index (pdr5∆) of 3.05 ± 0.065 and a protein stability index (san1∆) of 3.15 ± 0.059. It also gave a protein stability index (ubr1∆) of 3.01 ± 0.054.
